In patent US20200385439A1:
Each block holds one molecule with its values, some of them ahead of it. Ends that are not written are not given here.

Assays:
Assay in all cases: cell-based or functional assay
[1] = target: rhesus monkey Y2 receptor (rhesus monkey) (UniProt Q9GK74)
[2] = target: mouse Y2 receptor (mouse) (UniProt P97295)
[3] = target: human Y1 receptor (human) (UniProt P25929)
[4] = target: human glucagon receptor (human) (UniProt P47871)
[5] = target: mouse GLP1 receptor (mouse) (UniProt O35659)
Chain of mouse GLP1 receptor (mouse) (O35659 22-463): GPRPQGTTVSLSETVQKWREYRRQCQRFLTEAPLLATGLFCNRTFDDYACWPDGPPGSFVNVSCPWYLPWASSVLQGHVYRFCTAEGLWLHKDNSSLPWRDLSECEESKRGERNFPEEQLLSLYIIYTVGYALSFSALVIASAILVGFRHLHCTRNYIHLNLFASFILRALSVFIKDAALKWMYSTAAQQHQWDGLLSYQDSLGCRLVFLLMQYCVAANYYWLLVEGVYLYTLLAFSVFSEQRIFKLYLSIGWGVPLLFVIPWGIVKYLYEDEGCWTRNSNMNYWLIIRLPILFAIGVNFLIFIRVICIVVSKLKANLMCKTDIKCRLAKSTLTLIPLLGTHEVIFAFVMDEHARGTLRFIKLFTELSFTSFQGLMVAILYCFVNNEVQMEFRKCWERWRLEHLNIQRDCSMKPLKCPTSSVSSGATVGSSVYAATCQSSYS

[6] = target: cynomolgus monkey glucagon receptor (cynomolgus monkey)
[7] = target: mouse glucagon receptor (mouse) (UniProt Q61606)
Chain of mouse glucagon receptor (mouse) (Q61606 27-485): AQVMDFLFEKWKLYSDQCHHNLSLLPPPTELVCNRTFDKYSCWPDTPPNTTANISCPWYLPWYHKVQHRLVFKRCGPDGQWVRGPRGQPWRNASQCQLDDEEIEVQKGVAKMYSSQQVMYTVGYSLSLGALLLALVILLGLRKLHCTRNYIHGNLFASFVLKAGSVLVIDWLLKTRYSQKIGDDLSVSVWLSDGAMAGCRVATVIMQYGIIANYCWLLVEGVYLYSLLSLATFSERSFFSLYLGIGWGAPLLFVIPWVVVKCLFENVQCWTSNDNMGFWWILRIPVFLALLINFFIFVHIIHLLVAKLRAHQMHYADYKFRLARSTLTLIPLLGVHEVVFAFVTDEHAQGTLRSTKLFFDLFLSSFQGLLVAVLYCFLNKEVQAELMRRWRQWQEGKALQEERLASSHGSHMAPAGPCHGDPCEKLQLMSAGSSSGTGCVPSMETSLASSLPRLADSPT

[8] = target: rat glucagon receptor (rat) (UniProt P30082)
Chain of rat glucagon receptor (rat) (P30082 27-485): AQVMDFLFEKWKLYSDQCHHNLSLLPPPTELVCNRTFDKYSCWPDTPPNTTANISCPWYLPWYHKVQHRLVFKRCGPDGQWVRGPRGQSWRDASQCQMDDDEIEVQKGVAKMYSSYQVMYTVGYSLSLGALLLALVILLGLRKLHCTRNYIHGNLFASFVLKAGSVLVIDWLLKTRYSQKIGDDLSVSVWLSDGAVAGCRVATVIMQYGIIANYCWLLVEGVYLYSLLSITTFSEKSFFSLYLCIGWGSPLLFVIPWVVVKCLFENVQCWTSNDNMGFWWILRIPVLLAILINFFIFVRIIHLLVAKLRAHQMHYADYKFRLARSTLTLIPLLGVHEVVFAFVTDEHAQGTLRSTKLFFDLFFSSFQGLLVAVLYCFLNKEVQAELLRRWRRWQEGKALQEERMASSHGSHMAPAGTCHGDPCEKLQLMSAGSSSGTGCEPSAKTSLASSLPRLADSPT

CRHR1 = target: CRHR1
CRHR2 = target: CRHR2
[9] = target: cynomolgus monkey GLP1 receptor (cynomolgus monkey) (UniProt F8V479)
CALCR = target: T1, CALCR
T1 sequence (P30988 1-474, species assumed, looked up): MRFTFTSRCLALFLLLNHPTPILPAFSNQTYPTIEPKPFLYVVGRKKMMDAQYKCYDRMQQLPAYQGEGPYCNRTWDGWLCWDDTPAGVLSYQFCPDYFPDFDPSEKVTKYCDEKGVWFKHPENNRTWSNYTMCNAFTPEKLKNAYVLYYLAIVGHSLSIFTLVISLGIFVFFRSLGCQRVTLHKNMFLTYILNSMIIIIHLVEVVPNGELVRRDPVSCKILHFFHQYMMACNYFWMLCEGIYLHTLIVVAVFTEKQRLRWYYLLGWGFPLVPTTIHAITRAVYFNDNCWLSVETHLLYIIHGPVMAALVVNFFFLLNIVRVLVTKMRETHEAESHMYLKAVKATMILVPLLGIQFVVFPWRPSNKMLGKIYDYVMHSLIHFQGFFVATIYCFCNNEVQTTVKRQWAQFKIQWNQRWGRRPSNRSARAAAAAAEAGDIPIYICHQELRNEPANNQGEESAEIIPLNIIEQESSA

Chain of Dulaglutide (Fc fusion) (chain): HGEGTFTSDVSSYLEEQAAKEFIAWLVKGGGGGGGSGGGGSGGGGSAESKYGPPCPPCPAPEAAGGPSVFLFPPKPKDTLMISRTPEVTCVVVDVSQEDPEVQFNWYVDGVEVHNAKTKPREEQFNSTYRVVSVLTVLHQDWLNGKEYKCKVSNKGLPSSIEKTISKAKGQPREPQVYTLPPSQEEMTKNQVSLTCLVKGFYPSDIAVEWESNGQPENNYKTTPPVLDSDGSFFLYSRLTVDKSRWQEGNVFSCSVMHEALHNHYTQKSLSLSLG
Chain of rhesus monkey Y2 receptor (rhesus monkey) (Q9GK74 whole entry): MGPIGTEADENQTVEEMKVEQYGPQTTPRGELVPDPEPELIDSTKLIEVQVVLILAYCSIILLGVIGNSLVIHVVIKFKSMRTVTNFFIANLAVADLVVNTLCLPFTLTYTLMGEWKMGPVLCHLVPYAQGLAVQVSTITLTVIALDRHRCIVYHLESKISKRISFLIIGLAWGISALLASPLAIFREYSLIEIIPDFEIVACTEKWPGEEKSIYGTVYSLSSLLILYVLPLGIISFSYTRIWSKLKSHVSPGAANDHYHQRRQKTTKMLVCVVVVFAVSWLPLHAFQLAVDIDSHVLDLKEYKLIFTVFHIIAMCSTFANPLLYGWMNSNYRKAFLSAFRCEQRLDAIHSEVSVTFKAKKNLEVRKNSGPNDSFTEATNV
Chain of human glucagon receptor (human) (P47871 26-477): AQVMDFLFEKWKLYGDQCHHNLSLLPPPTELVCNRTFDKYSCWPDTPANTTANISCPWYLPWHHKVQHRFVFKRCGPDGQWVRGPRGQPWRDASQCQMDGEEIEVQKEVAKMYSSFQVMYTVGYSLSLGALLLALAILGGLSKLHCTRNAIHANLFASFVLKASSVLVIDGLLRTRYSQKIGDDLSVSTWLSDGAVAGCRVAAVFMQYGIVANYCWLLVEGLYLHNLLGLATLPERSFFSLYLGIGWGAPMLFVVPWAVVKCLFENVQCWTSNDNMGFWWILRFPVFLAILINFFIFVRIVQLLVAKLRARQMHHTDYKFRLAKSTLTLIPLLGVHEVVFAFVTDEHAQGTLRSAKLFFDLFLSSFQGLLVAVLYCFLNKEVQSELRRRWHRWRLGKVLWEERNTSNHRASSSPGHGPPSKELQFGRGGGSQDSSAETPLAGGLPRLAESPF
Chain of human Y1 receptor (human) (P25929 whole entry): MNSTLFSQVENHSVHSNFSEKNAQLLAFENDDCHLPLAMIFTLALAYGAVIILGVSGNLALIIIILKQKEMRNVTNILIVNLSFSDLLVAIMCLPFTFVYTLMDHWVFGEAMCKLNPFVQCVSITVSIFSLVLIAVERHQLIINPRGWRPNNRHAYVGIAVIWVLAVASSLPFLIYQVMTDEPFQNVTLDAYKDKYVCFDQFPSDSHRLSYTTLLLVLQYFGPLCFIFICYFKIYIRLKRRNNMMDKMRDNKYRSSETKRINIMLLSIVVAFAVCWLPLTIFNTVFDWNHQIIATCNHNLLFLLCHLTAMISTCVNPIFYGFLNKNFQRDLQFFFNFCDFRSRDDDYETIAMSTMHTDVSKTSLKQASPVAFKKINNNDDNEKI
Chain of mouse Y2 receptor (mouse) (P97295 whole entry): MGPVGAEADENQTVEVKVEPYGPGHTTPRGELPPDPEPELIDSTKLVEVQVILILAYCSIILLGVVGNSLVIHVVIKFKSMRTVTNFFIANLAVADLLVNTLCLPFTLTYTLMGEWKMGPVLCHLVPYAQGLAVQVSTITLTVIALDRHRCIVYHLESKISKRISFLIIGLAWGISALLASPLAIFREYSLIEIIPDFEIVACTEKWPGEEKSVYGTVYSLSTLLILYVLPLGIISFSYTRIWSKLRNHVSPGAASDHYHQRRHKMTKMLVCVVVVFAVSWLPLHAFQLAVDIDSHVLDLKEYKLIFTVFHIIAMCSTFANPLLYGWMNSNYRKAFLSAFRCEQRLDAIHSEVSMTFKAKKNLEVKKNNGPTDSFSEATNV

EC50, receptor cAMP assay [4]: > 100 nM | EC50, receptor cAMP assay [5]: 0.035 nM | EC50, receptor cAMP assay [6]: > 100 nM | EC50, receptor cAMP assay [7]: > 100 nM | EC50, receptor cAMP assay [8]: > 100 nM
Molecule: Dulaglutide (Fc fusion)

Max response, cAMP assay (CRHR1): 106% | Max response, cAMP assay (CRHR2): 107%
Molecule: Sauvagine (peptide; unit assumed)

RC50, cAMP assay (CRHR1): 0.000308 µM | RC50, cAMP assay (CRHR2): 0.0034 µM
Molecule: Sauvagine (peptide)

Continued, molecule first:

Molecule: PYY3-36 (from UniProt P10082 31-64) (peptide)
EC50, cAMP assay (LANCE) on receptor-expressing cells [1]: 0.06 nM | EC50, cAMP assay (LANCE) on receptor-expressing cells [2]: 0.03 nM | EC50, cAMP assay (LANCE) on receptor-expressing cells [3]: 66.4 nM

Molecule: Ser-8 GLP1 (from UniProt P01275 98-127) (peptide)
EC50, receptor cAMP assay [5]: 0.06 nM | EC50, receptor cAMP assay [9]: 0.08 nM | EC50, receptor cAMP assay [6]: > 100 nM | EC50, receptor cAMP assay [7]: > 100 nM | EC50, receptor cAMP assay [8]: > 100 nM

Molecule: CGNLSTCMLGTYTQDFNKFHTFPQTAIGVGAP (peptide, UniProt P01258 85-116, looked up, species assumed, ends and bridges not checked; cysteine pairing not given here) [Calcitonin]
Max response, cAMP assay (CALCR): 101% | RC50, cAMP assay (CALCR): 0.000776 µM
